From the DeepSol protein solubility set

Test: soluble on expression in E. coli; label from the status in PepcDB or PDB records

Sequence	soluble on expression in E. coli
MGNTATEFDGPYVITPISGQSTAYWICDNRLKTTSIEKLQVNRPEHCGDLPETKLSSEIKQIMPDTYLGIKKVVALSDVHGQYDVLLTLLKKQKIIDSDGNWAFGEGHMVMTGDIFDRGHQVNEVLWFMYQLDQQARDAGGMVHLLMGNHEQMVLGGDLRYVHQRYDIATTLINRPYNKLYSADTEIGQWLRSKNTIIKINDVLYMHGGISSEWISRELTLDKANALYRANVDASKKSLKADDLLNFLFFGNGPTWYRGYFSETFTEAELDTILQHFNVNHIVVGHTSQERVLGLFHNKVIAVDSSIKVGKSGELLLLENNRLIRGLYDGTRETLQENSLNQ	soluble
MGSDKIHHHHHHMTTLNAIFRPFIQPHRYKIAKGGRGSGKSWAIARLLVEIARRGTYRFLCAREFQASMADSVIQLIADTIQREGYLKEFEIQKAYIRHLAATDSLFMFYGIKNNVTKIKSLEGIDIAWVEEAEAVTKESWDILIPTIRKPGSEIWVSFNSKNILDDTYQRFVVNPPDDICLLTVHYTDNPHFPEVLRLEMEECKCKDYDLYLHIWEGQPVADSDLAIIKPLWIAAAVDAHMTLGFDAVGEKRLGFDVADEGKTATPCALCRAQSC	not soluble
MNYSRIAEAIEYIRAHYKEQPGLDEVAEKVHLSPFHFQRIFTEWAGLEHHHHHH	not soluble
MANDVMNRNYDFFDPMNFFNEVGNLGRDMFSGDSSMKTDVVEHDKDYVVTAELPGFKKDDIHVDYHDETLRISGKTEVNQSAKDDDGRILRQERRSQNVARSFYLPGIDLKNVKATYADGILTLTLPKQTEVDGSHEISIDLEHHHHHH	soluble
DGRITGMIQVAIDVTEQVVARKKLEESESRFRALVNASSDVVYRMNADWTVMRELEGRDFLTPAGTAMADWVETYTYREDRALVKATAAAAIEGKRIFELEHRVLKADGTIGWTFSRAIPILDEQ	not soluble
MSLSLLLSILCMTQAKDRIVERPPFLAQSSSSIEIDKIVMSDTVTTVYIKAFYRPKYWIKIATGSVLKDNNGNLYPVRKGIGITLDKEFWMPESGEAEFQLTFPPIPQNVTCLDFSEGDFEGAYKIWGIQLDKKTFSKFKLPKDVTVTKADHKTTLPEPVVKYAKAILKGRILDYQKGMPNKGSLYFQDVIRDEAQEGKIRIQDDGTFYHEMNVFMVTPCMIRFPFGAVSYLLAPGETTSVVINLRENARKQSHLRQAEKPYGKEIYYGGYLAGVQQELADHPMSFSFTEGNSYEEYQQQIKKLNGKTAEEYKAQILARLPEFRKQITQSKGSPAYKEIINTDLELSAALKIIETERNLKLVHIMTNGLEGEKANKYYAETKIDIPQGYYESLQDFTYILSPKACYNSRYPILFDIIRRIGIDDKILKSLSNHTAASYLIQNPKAQMIGVSMRDLNPLNDKQKAELSTMPAAYNDMALAMNNDLLKQIEINKKKTGFTVNETGEVSNEDLFPSIISKFRGHTLLVDFWATWCGPCRSANKQILPMKEELKDKDIIYLYITGETSPLGTWKNMIPDIHGEHFRVTDEQWSYLREKFSIRGVPTYFVIDKEGNITYKQTGFPGVDTMKEQLMKALEKEGHHHHHH	soluble
MGSDKIHHHHHHMLAERLVSDYDVEVLTTCVRDVATGENIYPEGEEEWNGVVIRRFRTNPVQREKERYFAKKAKPARKLRQFLFKLGILKYLSYLIPVWSYKHDDEVQAMKSDKFYSSALNDYIRDHIDEYKAFIAMSSDYVTFYYTALYAGRKTIAIPTMHNMGISFRSVLTSAFSKIAYVGFNTGEEQRLAENILGKALGAHGILSVGIEESLSADWAMTKEKFQLPEKYLLYIGRITPKKIHRLLTYFVNYKKKYSDSTLRLVLVGGLAMERFEHPDVIYTGFVSDEEKMSILQHADIVVNPSRYESLSLILLEAMSQKRPMLVNGHCKVLKEHCLKSDFASFYYMNNRGFNQALRRIEQSEDLREEMGEKGVFYVKSNYNWTLIMGRLKQAIKSI	not soluble
MKHWRPFRFPPLIDGAPLAPDAAAEVQASAADGFRQGMDAGYREGFDSGEAAGRDAGYQAGLEQGRAEGAAAARAETLAGLETLGAPLAAAIEQLNKLCRDYQAAQRDEVVDLVAKVARQVIRCELALKPVQILDLVEETLAALPQGAHSQGEVEVLLNPEECQRIRELAPERAAQWKLSADPSLAPGECRLRGAEFEADAGCQQRLERCVDSLREQLAAEEG	not soluble
